{"source": "patent US9408889B2", "about": "“Fusion peptide designed to reduce plaque bacteria and yeast in the oral cavity” (RUTGERS, THE STATE UNIVERSITY OF NEW JERSEY, priority 2011, dated 2016)", "origin": "cited, not measured here", "molecules": {"B1": {"name": "arginine variant: full length lactoferrin (Lf) variant with arginine at position 29, the more common variant (protein, UniProt P02788 1-710, looked up)", "chain": "MKLVFLVLLFLGALGLCLAGRRRSVQWCAVSQPEATKCFQWQRNMRKVRGPPVSCIKRDSPIQCIQAIAENRADAVTLDGGFIYEAGLAPYKLRPVAAEVYGTERQPRTHYYAVAVVKKGGSFQLNELQGLKSCHTGLRRTAGWNVPIGTLRPFLNWTGPPEPIEAAVARFFSASCVPGADKGQFPNLCRLCAGTGENKCAFSSQEPYFSYSGAFKCLRDGAGDVAFIRESTVFEDLSDEAERDEYELLCPDNTRKPVDKFKDCHLARVPSHAVVARSVNGKEDAIWNLLRQAQEKFGKDKSPKFQLFGSPSGQKDLLFKDSAIGFSRVPPRIDSGLYLGSGYFTAIQNLRKSEEEVAARRARVVWCAVGEQELRKCNQWSGLSEGSVTCSSASTTEDCIALVLKGEADAMSLDGGYVYTAGKCGLVPVLAENYKSQQSSDPDPNCVDRPVEGYLAVAVVRRSDTSLTWNSVKGKKSCHTAVDRTAGWNIPMGLLFNQTGSCKFDEYFSQSCAPGSDPRSNLCALCIGDEQGENKCVPNSNERYYGYTGAFRCLAENAGDVAFVKDVTVLQNTDGNNNEAWAKDLKLADFALLCLDGKRKPVTEARSCHLAMAPNHAVVSRMDKVERLKQVLLHQQAKFGRNGSDCPDKFCLFQSETKNLLFNDNTECLARLHGKTTYEKYLGPQYVAGITNLKKCSTSPLLEACEFLRK", "modifications": "full-length", "notes": "full length lactoferrin (Lf) variant with arginine at position 29, the more common variant"}}, "tested_on": "Streptococcus mutans", "conditions": "full length Lf variant expressed in an insect vector", "data": [{"molecule": "B1", "values": [{"measurement": "effect on survival of S. mutans", "result": "little to no effect"}]}]}
